Experimental data as given in US20120021972A1 (CADILA HEALTHCARE, published 2012).
Starred links: 1 amine or outer side, 2 acyl side, 3 side chain; linkers in the order of their positions; H or OH if unused. Non-standard residues stand in square brackets, D forms with d. No end group written: not given here. NMe2F‑APPA = N-methyl-2-amino-5-(2-fluorophenyl)pentanoic acid, CN([C@@H](CCCc1ccccc1F)C(=O)[*:2])[*:1]; 2,4‑diF‑APPA = 2-amino-5-(2,4-difluorophenyl)pentanoic acid, O=C([C@H](CCCc1ccc(F)cc1F)N[*:1])[*:2]; AMCB = 2-amino-5-(4-chloro-2-methylphenyl)pentanoic acid, Cc1cc(Cl)ccc1CCC[C@H](N[*:1])C(=O)[*:2]; ACPP = 2-amino-5-(3-chlorophenyl)pentanoic acid, O=C([C@H](CCCc1cccc(Cl)c1)N[*:1])[*:2]; 2Cl,4OMe‑APPA = 2-amino-5-(2-chloro-4-methoxyphenyl)pentanoic acid; 2CF3‑APPA = 2-amino-5-(2-(trifluoromethyl)phenyl)pentanoic acid; Bip(2'-Et-4'-OMe) = CCc1cc(OC)ccc1-c1ccc(C[C@H](N)C(=O)O)cc1; Leu(5,5,5,5',5',5'-F6) = N[C@@H](CC(C(F)(F)F)C(F)(F)F)C(=O)O; Nva(5-(3,5-Me2Ph)) = Cc1cc(C)cc(CCC[C@H](N)C(=O)O)c1; 2Cl‑APPA = 2-amino-5-(2-chlorophenyl)pentanoic acid; 2F‑APPA = 2-amino-5-(2-fluorophenyl)pentanoic acid; αMePhe(2-F) = C[C@](N)(Cc1ccccc1F)C(=O)O; Phe(2-F) = N[C@@H](Cc1ccccc1F)C(=O)O; NMeBip(OMe) = N-methylated Bip(OMe); hhPhe = N[C@@H](CCCc1ccccc1)C(=O)O; aThr = C[C@H](O)[C@H](N)C(=O)O; αMeP = C[C@@]1(C(=O)O)CCCN1; NMeAPPA = not defined here; CNB = not defined here; Aib = CC(C)(N)C(=O)O

Experiments:
human GLP-1 receptor = human GLP-1 receptor (human, UniProt P43220 24-463); assay: cell-based or functional assay
human glucagon receptor = human glucagon receptor (human, UniProt P47871 26-477); assay: cell-based or functional assay

Chain of human GLP-1 receptor (P43220 24-463): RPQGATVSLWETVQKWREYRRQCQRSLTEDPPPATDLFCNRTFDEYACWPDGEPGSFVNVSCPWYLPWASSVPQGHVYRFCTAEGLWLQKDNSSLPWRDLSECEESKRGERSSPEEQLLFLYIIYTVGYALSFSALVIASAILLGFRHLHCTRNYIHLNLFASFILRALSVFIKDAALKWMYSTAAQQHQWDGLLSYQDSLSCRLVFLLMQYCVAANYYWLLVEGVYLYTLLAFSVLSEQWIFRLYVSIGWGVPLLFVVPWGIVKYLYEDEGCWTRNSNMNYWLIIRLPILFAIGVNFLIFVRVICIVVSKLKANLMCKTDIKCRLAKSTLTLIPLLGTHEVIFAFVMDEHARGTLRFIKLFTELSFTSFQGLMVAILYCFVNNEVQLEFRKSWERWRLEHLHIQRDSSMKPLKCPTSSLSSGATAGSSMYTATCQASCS

| Binder | cAMP release, % activity, 1 nM (human GLP-1 receptor) [%] | cAMP release, % activity, 10 nM (human GLP-1 receptor) [%] | cAMP release, % activity, 100 nM (human GLP-1 receptor) [%] | cAMP release, % activity, 1 µM (human GLP-1 receptor) [%] | cAMP release, % activity, 10 µM (human GLP-1 receptor) [%] | inhibition of cAMP production, 1 nM (human glucagon receptor) [pmol/ml/µg prt] | inhibition of cAMP production, 10 nM (human glucagon receptor) [pmol/ml/µg prt] | inhibition of cAMP production, 100 nM (human glucagon receptor) [pmol/ml/µg prt] | inhibition of cAMP production, 1 µM (human glucagon receptor) [pmol/ml/µg prt] | inhibition of cAMP production, 10 µM (human glucagon receptor) [pmol/ml/µg prt] |
| --- | --- | --- | --- | --- | --- | --- | --- | --- | --- | --- |
| H[Aib]QGT[Phe(2-F)]TSD[Bip(2'-Et-4'-OMe)][Nva(5-(3,5-Me2Ph))] [Seq. ID. No. 42: H-Aib-QGT-(2F-Phe)-TSD-Bip(OMe)-(ADMP)] | 39 | 81 | 89 | 96 | 99 |  |  |  |  |  |
| H[Aib]QGT[αMePhe(2-F)]TSD[Bip(2'-Et-4'-OMe)][ACPP] [Seq. ID. No. 39: H-Aib-QGT-(α-Me-2F-Phe)-TSD-Bip(OMe)-(ACPP)] | 40 | 81 | 87 | 95 | 98 |  |  |  |  |  |
| HSQGTFTSD[Bip(2'-Et-4'-OMe)][2CF3‑APPA] [Seq. ID. No. 47: HSQGTFTSD-Bip(OMe)-(2CF3-APPA)] | 55 | 89 | 93 | 99 | 99 |  |  |  |  |  |
| H[αMeP]QGTFTSD[Bip(2'-Et-4'-OMe)][ACPP] [Seq. ID. No. 11: H-(α-Me-Pro)-QGTFTSD-Bip(OMe)-(ACPP)] | 99 | 99 | 99 | 99 | 99 | 3 | 0 | 0 | 0 | 0 |
| H[Aib][CNB]G[aThr][αMePhe(2-F)][aThr]SD[Bip(2'-Et-4'-OMe)][NMeAPPA] (reading uncertain) [Seq. ID. No. 130: H-Aib-(CNB)-G-T(allo)-(α-Me-2F-Phe)-T(allo)-SD-Bip(OMe)-((NMe)(APPA))] | 39 | 81 | 89 | 96 | 99 | 5 | 3 | 1 | 0 | 0 |
| H[Aib][CNB]G[aThr][αMePhe(2-F)]TSD[Bip(2'-Et-4'-OMe)][hhPhe] (reading uncertain) [Seq. ID. No. 110: H-Aib-(CNB)-G-T(allo)-(α-Me-2F-Phe)-TSD-Bip(OMe)-(APPA)] | 38 | 77 | 85 | 94 | 97 | 18 | 16 | 12 | 8 | 6 |
| H[Aib]QGTFTSD[Bip(2'-Et-4'-OMe)][2Cl,4OMe‑APPA] [Seq. ID. No. 68: H-Aib-QGTFTSD-Bip(OMe)-(2Cl, 4OMe-APPA)] | 39 | 80 | 88 | 96 | 99 |  |  |  |  |  |
| H[Aib][CNB]G[aThr][αMePhe(2-F)][aThr]SD[Bip(2'-Et-4'-OMe)][hhPhe] (reading uncertain) [Seq. ID. No. 114: H-Aib-(CNB)-G-T(allo)-(α-Me-2F-Phe)-T(allo)-SD-Bip(OMe)-(APPA)] | 82 | 87 | 92 | 99 | 99 | 4 | 2 | 0 | 0 | 0 |
| H[Aib][CNB]G[aThr][αMePhe(2-F)][aThr]SD[NMeBip(OMe)][NMe2F‑APPA] (reading uncertain) [Seq. ID. No. 144: H-Aib-(CNB)-G-T(allo)-(α-Me-2F-Phe)-T(allo)-SD-((NMe)Bip(OMe))-((NMe)(2F-APPA))] | 55 | 89 | 93 | 99 | 99 | 5 | 3 | 0 | 0 | 0 |
| H[Aib][CNB]G[aThr][αMePhe(2-F)][aThr]SD[Bip(2'-Et-4'-OMe)][2F‑APPA] (reading uncertain) [Seq. ID. No. 116: H-Aib-(CNB)-G-T(allo)-(α-Me-2F-Phe)-T(allo)-SD-Bip(OMe)-(2F-APPA)] | 55 | 88 | 92 | 99 | 99 | 2 | 0 | 0 | 0 | 0 |
| H[Aib][Leu(5,5,5,5',5',5'-F6)]GT[αMePhe(2-F)]TSD[Bip(2'-Et-4'-OMe)][Nva(5-(3,5-Me2Ph))] [Seq. ID. No. 235: H-Aib-(Hfl)-GT-(α-Me-2F-Phe)-TSD-Bip(OMe)-(ADMP)] | 99 | 99 | 99 | 99 | 99 |  |  |  |  |  |

Other lines, results leading:

| cAMP release, % activity, 1 nM (human GLP-1 receptor) [%] | cAMP release, % activity, 10 nM (human GLP-1 receptor) [%] | cAMP release, % activity, 100 nM (human GLP-1 receptor) [%] | cAMP release, % activity, 1 µM (human GLP-1 receptor) [%] | cAMP release, % activity, 10 µM (human GLP-1 receptor) [%] | inhibition of cAMP production, 1 nM (human glucagon receptor) [pmol/ml/µg prt] | inhibition of cAMP production, 10 nM (human glucagon receptor) [pmol/ml/µg prt] | inhibition of cAMP production, 100 nM (human glucagon receptor) [pmol/ml/µg prt] | inhibition of cAMP production, 1 µM (human glucagon receptor) [pmol/ml/µg prt] | inhibition of cAMP production, 10 µM (human glucagon receptor) [pmol/ml/µg prt] | Binder |
| --- | --- | --- | --- | --- | --- | --- | --- | --- | --- | --- |
| 39 | 80 | 88 | 96 | 99 |  |  |  |  |  | H[Aib][CNB]GTFTSD[Bip(2'-Et-4'-OMe)][AMCB] (reading uncertain) [Seq. ID. No. 32: H-Aib-(CNB)-GTFTSD-Bip(OMe)-(AMCB)] |
| 60 | 92 | 98 | 99 | 99 |  |  |  |  |  | HSQGTFTSD[Bip(2'-Et-4'-OMe)][2Cl‑APPA] [Seq. ID. No. 50: HSQGTFTSD-Bip(OMe)-(2Cl-APPA)] |
| 38 | 77 | 85 | 94 | 97 | 4 | 2 | 0 | 0 | 0 | H[Aib][CNB]GTFTSD[Bip(2'-Et-4'-OMe)][2Cl,4OMe‑APPA] (reading uncertain) [Seq. ID. No. 84: H-Aib-(CNB)-GTFTSD-Bip(OMe)-(2Cl,4OMe-APPA)] |
| 38 | 78 | 86 | 95 | 98 |  |  |  |  |  | H[Aib]QGTFTSD[Bip(2'-Et-4'-OMe)][2,4‑diF‑APPA] [Seq. ID. No. 62: H-Aib-QGTFTSD-Bip(OMe)-(2,4-diF-APPA)] |
| 39 | 81 | 89 | 96 | 99 | 6 | 5 | 2 | 0 | 0 | H[Aib][CNB]G[aThr][αMePhe(2-F)]TSD[Bip(2'-Et-4'-OMe)][2F‑APPA] (reading uncertain) [Seq. ID. No. 112: H-Aib-(CNB)-G-T(allo)-(α-Me-2F-Phe)-TSD-Bip(OMe)-(2F-APPA)] |
| 99 | 99 | 99 | 99 | 99 | 0 | 0 | 0 | 0 | 0 | H[Aib][CNB]GT[αMePhe(2-F)][aThr]SD[Bip(2'-Et-4'-OMe)][2F‑APPA] (reading uncertain) [Seq. ID. No. 120: H-Aib-(CNB)-GT-(α-Me-2F-Phe)-T(allo)-SD-Bip(OMe)-(2F-APPA)] |
